The results in this text go back to patent publication US6943279B1, “Amino polyol amine oxidase polynucleotides and related polypeptides and methods of use” (priority 1999, dated 2005).

A short description of series [1]: Other enzymes tested for ability to modify AP1, radiolabeled TLC. It counts as biochemical. The settings on record: optimal conditions at 37° Celsius, overnight or longer. Here is the method: For analysis of APAO activity, an alternative method was used. Equal volumes of sample and ^14C-AP1 (1 mg/ml, pH 8, 50 mM sodium phosphate) were incubated at room temperature for one to six days. Analytical thin-layer chromatography was then carried out on C60 HPK silica gel plates (Whatman #4807-700; 10×10 cm; 0.2 mm thick). After application of from 0.1 to 2 μl of aqueous sample, the plates were air-dried and developed in CHCl3:MeOH:CH3COOH:H20 (55:36:8:1). Plates were then air dried, and exposed to Phosphorlmager screen (Molecular Dynamics) or autoradiographic film. A Storm™ Phosphorlmager (Molecular Dynamics) was used to scan the image produced on the screen.
Other enzymes were tested for their ability to modify AP1. All enzymes were assayed by radiolabeled TLC, as described above, under optimal conditions at 37° Celsius, overnight or longer.

Series [2] is described as follows: Site-directed mutagenesis vectors: maize transient expression, APAO or trAPAO activity. It counts as biochemical. The settings on record: transient expression in maize. The source says:
Please see the table above entitled “Table of site-directed mutagenesis vectors and enzyme assay results.” Thus, elimination of this glycosylation site is not in itself sufficient to have an active protein upon secretion. This could be due to glycosylation occurring at a second adjacent site (N201-S203). However, no active APAO was recovered when either N201 or S203 is mutated along with S206. […] This is backed up by predicted solvent accessibility numbers for these residues in the 3-D model based on the maize amine oxidase. Please see the table below entitled “Solvent accessibility for cysteine residues of truncated APAO.” The elimination of APAO glycosylation site at amino acids 204 to 206 is not sufficient to allow APAO to be secreted from the ccil and retain full enzyme activity, but elimination of this site may improve chances for obtaining a fully active enzyme once the other roadblock(s) to secretability have been resolved. In other words, elimination of this site may be necessary but not sufficient to produce active secretable APAO.

The nature of series [3]: Mutated APAO lysates from E coli, Amplex Red assay, substrate FB1. The note with it: Glyc(−) APAO lysates from E coli. Type of series: biochemical.
Series [4] is described as follows: Mutated APAO lysates from E coli, Amplex Red assay, substrate AP1. Type of series: biochemical. The note with it: Glyc(−) APAO lysates from E coli.
The nature of series [5]: Pichia expression of trAPAO, TLC assay. The settings on record: pellet suspensions and lysates; 6 days room temperature. Type of series: biochemical, Pichia pastoris. How it is done: The Pichia culture fluids and pellets were assayed for APAO activity as described earlier.
The 50 μl cell pellets were resuspended in 150 μl cold 5OmM Na-phosphate, pH 8.0. and divided into two fresh 500 μl tubes. One tube was kept on ice with no treatment, the pellet suspension, and one tube was used for lysis. An equal volume of 0.1 mm zirconia-silica beads was added to each tube. The tubes were BeadBeatT™ for 15 seconds then cooled on ice 5 minutes. This was repeated three times. The crude lysate was then transferred to another tube for assay or lysate suspension.
The TLC assays were performed as follows, the samples are 1) pellet suspensions; 10 μl; 2) lysate suspensions; 10 μl; 3) media controls-mixed 5 μl media with 5 μl crude fungal enzyme; 10 μl; 4) positive control-used crude fungal enzyme undiluted; 10 μl; 5) substrate control-used 50 mM Na-phosphate, pH8.0; 10 μl. […]
A positive TLC result is obtained if an additional radioactive spot appears at a lower Rf of the produced AP1 modification earlier identified as 2-OP, a deaminated product of AP1. In samples #6 and #52 (without intron) the AP1-modifying enzyme activity (conversion of AP1 to 2-OP) was detected in pellet suspensions and pellet lysates, although the majority of activity was associated with the pellet suspensions. […]

As for “D-amino oxidase: EC 1.4.3.3, porcine kidney: Type X”, in series [1], the “Result (ability to modify AP1)” value is recorded as “negative”.

B1: S206A: APAO mutated to alter the serine at position 206 to an alanine (SEQ ID NO: 33) (protein)
chain: MALAPSYINPPNVASPAGYSHVGVGPDGGRYVTIAGQIGQDASGVTDPAYEKQVAQAFANLRACLAAVGATSNDVTKLNYYIVDYAPSKLTAIGDGLKATFALDRLPPCTLVPVSALSSPEYLFEVDATALVPGHTTPDNVADVVVVGAGLSGLETARKVQAAGLSCLVLEAMDRVGGKTLSVQSGPGRTTINDLGAAWINDSNQAEVSRLFERFHLEGELQRTTGNSIHQAQDGTTTTAPYGDSLLSEEVASALAELLPVWSQLIEEHSLQDLKASPQAKRLDSVSFAHYCEKELNLPAVLGVANQITRALLGVEAHEISMLFLTDYIKSATGLSNIFSDKKDGGQYMRCKTGMQSICHAMSKELVPGSVHLNTPVAEIEQSASGCTVRSASGAVFRSKKVVVSLPTTLYPTLTFSPPLPAEKQALAENSILGYYSKIVFVWDKPWWREQGFSGVLQSSCDPISFARDTSIDVDRQWSITCFMVGDPGRKWSQQSKQVRQKSVWDQLRAAYENAGAQVPEPANVLEIEWSKQQYFQGAPSAVYGLNDLITLGSALRTPFKSVHFVGTETSLVWKGYMEGAIRSGQRGAAEVVASLVPAA
modifications: Glyc(-) APAO; mutation in glycosylation sites (Exophiala spinifera)
Take B1: the “Maize expression vector, APAO or trAPAO Activity (Act)” value in series [2] is given as “no detectable enzyme activity”. Further, in series [3], the Conclusion entry is “Slightly active” and the “M H2O2/min” value was 0.07 μM H2O2/min. In series [4], the Conclusion result was “Partially Active” and the “M H2O2/min” value is 0.85 μM H2O2/min.

B2: trAPAO: truncated, but still functional APAO (SEQ ID NO: 6) (protein, listed as Exophiala spinifera)
chain: DNVADVVVVGAGLSGLETARKVQAAGLSCLVLEAMDRVGGKTLSVQSGPGRTTINDLGAAWINDSNQSEVSRLFERFHLEGELQRTTGNSIHQAQDGTTTTAPYGDSLLSEEVASALAELLPVWSQLIEEHSLQDLKASPQAKRLDSVSFAHYCEKELNLPAVLGVANQITRALLGVEAHEISMLFLTDYIKSATGLSNIFSDKKDGGQYMRCKTGMQSICHAMSKELVPGSVHLNTPVAEIEQSASGCTVRSASGAVFRSKKVVVSLPTTLYPTLTFSPPLPAEKQALAENSILGYYSKIVFVWDKPWWREQGFSGVLQSSCDPISFARDTSIDVDRQWSITCFMVGDPGRKWSQQSKQVRQKSVWDQLRAAYENAGAQVPEPANVLEIEWSKQQYFQGAPSAVYGLNDLITLGSALRTPFKSVHFVGTETSLVWKGYMEGAIRSGQRGAAEVVASLVPAA
For the molecule B2, the “APAO activity (conversion of AP1 to 2-OP) in Pichia transformants” value in series [5] was “functions correctly in degrading AP1”.
